Measured values from publication PMC9951844 (2023).

Legend:
SARS-CoV-2 wildtype RBD [1] = molecular target: T1, SARS-CoV-2 wildtype RBD (SARS-CoV-2, UniProt P0DTC2 332-527); assay: BLI
SARS-CoV-2 wildtype RBD [2] = molecular target: T1, SARS-CoV-2 wildtype RBD; assay: BLI; remark: listed apart in the source

B1: YB13-292 IgG (antibody, V domains shown)
VH: EVQLVESGGGLVKPGGSLRLSCAASGFSFITYNMNWVRQAPGKGLEWVSSISSNILSSTSYIYYADSVKGRFTISRDDAANSLFLQMNSLRVEDTAQYYCARTRSRSVRNCTSATCPVDAFDLWGQGTMVIVSS
VL: DIVLTQSPLSLPVTPGEPASISCRSSQSLLRSNGYNYLDWYLQKPGQSPHLLIYLGSNRASGVPDRFSGSGSGTDFTLKISRVEAEDVGVYYCMQALQTPYTFGQGTNLEIK
B1 showed a Kd (SARS-CoV-2 wildtype RBD [1]) of 0.39 nM and a koff (SARS-CoV-2 wildtype RBD [2]) of 0.000197 s⁻¹.

B2: YB9-258 IgG (antibody, V domains shown)
VH: EVQLVESGGGLIQPGGSLRLSCAASGLTVSSNYMHWVRQAPGKGLEWVSVLYAGGSAFYADSVKGRFTISRNNSKNTLYLQMNSLRAEDTAIYYCARGLGDYLDSWGQGTLVTVSS
VL: DIQMTQSPSSVSASVGDRVTITCRASQGIGSWLAWYQQKPGKAPQLLIYAASTLQSGVPPRFSGSGSGTDFTLTITSLQPEDFASYYCQQANSVLALTFGGGTKVEIK
Work on B2 yielded a Kd (SARS-CoV-2 wildtype RBD [1]) of 0.63 nM and a koff (SARS-CoV-2 wildtype RBD [2]) of 7.7e-05 s⁻¹.
